Source: patent US20030199036

Molecular target: ubiquitin (in vitro thiol-ubiquitination experiment, source not stated)

B1: human pub2 (protein)
chain: MERPYTFKDFLLRPRSHKSRVKGFLRLKMAYMPKNGGQDEENSDQRDDMEHGWEVVDSNDSASQHQEELPPPPLPPGWEEKVDNLGRTYYVNHNNRTTQWHRPSLMDVSSESDNNIRQINQEAAHRRFRSRRHISEDLEPEPSEGGDVPEPWETISEEVNIAGDSLGLALPPPPVSPGSRTSPQELSEELSRRLQITPDSNGEQFSSLIQREPSSRLRSCSVTDAVAEQGHLPPPSVAYVHTTPGLPSGWEERKDAKGRTYYVNHNNRTTTWTRPIMQLAEDGASGSATNSNNHLIEPQIRRPRSLSSPTVTLSAPLEGAKDSPVRRAVKDTLSNPQSPQPSPYNSPKPQHKVTQSFLPPGWEMRIAPNGRPFFIDHNTKTTTWEDPRLKFPVHMRSKTSLNPNDLGPLPPGWEERIHLDGRTFYIDHNSKITQWEDPRLQNPAITGPAVPYSREFKQKYDYFRKKLKKPADIPNRFEMKLHRNNIFEESYRRIMSVKRPDVLKARLWIEFESEKGLDYGGVAREWFFLLSKEMFNPYYGLFEYSATDNYTLQINPNSGLCNEDHLSYFTFIGRVAGLAVFHGKLLDGFFIRPFYKMMLGKQITLNDMESVDSEYYNSLKWILENDPTELDLMFCIDEENFGQTYQVDLKPNGSEIMVTNENKREYIDLVIQWRFVNRVQKQMNAFLEGFTELLPIDLIKIFDENELELLMCGLGDVDVNDWRQHSIYKNGYCPNHPVIQWFWKAVLLMDAEKRIRLLQFVTGTSRVPMNGFAELYGSNGPQLFTIEQWGSPEKLPRAHTCFNRLDLPPYETFEDLREKLLMAVENAQGFEGVD
thiol-ubiquitination in vitro: both h-pub1 and h-pub2 can become thiol-ubiquitinated in vitro
